Assay results taken from article PMC2849977 (Nature structural & molecular biology, 2009).

Molecular target: PHF8 (Homo sapiens, UniProt Q9UPP1)
Assay: PHF8 demethylation time course
Assay type: biochemical
Settings: equimolar ratio added

Chain of PHF8 (Q9UPP1 37-483): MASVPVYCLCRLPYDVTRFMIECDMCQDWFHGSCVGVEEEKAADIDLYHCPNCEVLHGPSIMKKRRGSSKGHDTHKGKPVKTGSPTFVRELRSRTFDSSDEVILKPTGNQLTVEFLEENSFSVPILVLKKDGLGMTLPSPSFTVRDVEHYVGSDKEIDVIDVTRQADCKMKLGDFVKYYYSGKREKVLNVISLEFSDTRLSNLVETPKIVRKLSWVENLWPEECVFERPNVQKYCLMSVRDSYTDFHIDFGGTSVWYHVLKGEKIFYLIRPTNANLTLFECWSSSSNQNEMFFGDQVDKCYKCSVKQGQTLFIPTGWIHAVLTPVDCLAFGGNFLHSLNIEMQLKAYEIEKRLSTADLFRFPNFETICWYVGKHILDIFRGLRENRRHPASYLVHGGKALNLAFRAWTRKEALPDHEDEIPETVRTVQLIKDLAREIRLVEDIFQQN

effect of added peptide in trans on demethylation of H3_1–24K9me2 by PHF8	Substance
inhibitory effect	H3_1–12K4me3: H3K4me3 modification in a short H3_1–12 peptide
inhibitory effect	H3_1–21K4me3: H3K4me3 modification in a long H3_1–21 peptide
